One block for each molecule: values may come before it.
Columns and labels:
[1] = target: T1, FtsR-Strep (Corynebacterium glutamicum ATCC13032) (UniProt Q8NQJ2); experiment: competition; conditions: EMSA: 10 mM Tris-HCl pH 7.5, 30 mM NaCl, 1.5 mM Na2EDTA, room temperature, 30 min; 15% native PAGE in 1x TBE (competition EMSA: 10% gel)
T1 sequence: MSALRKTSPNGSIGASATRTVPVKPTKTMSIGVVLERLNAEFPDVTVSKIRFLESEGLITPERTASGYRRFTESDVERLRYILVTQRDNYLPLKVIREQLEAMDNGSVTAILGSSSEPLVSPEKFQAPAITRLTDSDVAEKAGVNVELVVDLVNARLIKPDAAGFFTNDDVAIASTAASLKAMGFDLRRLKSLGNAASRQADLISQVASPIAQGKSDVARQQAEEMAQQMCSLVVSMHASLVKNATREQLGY

[2] = target: T1, FtsR-Strep (Corynebacterium glutamicum ATCC13032); experiment: EMSA; conditions: EMSA: 10 mM Tris-HCl pH 7.5, 30 mM NaCl, 1.5 mM Na2EDTA, room temperature, 30 min; 15% native PAGE in 1x TBE (competition EMSA: 10% gel)
[3] = target: FtsR-Strep (FtsR, Cg1631, of Corynebacterium glutamicum ATCC13032 with C-terminal StrepTag-II) (Corynebacterium glutamicum ATCC13032); experiment: SEC; affinity-purified FtsR-Strep on Superdex 200 Increase 10/300 GL, buffer W (50 mM Tris-HCl, 250 mM NaCl, pH 7.5), 0.6 mL/min; compared to standard proteins
FtsR-Strep = target: T2, FtsR-Strep (Corynebacterium glutamicum ATCC13032, UniProt Q8NQJ2 1-252); experiment: EMSA; 1 uM DNA; complete shift at 2-fold molar excess of dimer; EMSA: 10 mM Tris-HCl pH 7.5, 30 mM NaCl, 1.5 mM Na2EDTA, room temperature, 30 min; 15% native PAGE in 1x TBE (competition EMSA: 10% gel); conditions: protein: recombinant; chain copies: 2; blunt
T2 sequence: T1 sequence

Molecule: AGTGCTTCCTGCGGTTATTGCTGTAATCAACGCAATTAAAGCGCAAGATGCGCAGATGACAGAAAGTATCCAGGTAGTGGAAGCTCCGGATCAATTTGATATCTTGCTGAAAATGAATGATGGCCGGGAAATCTACTGGGGATCCTCGGAAAACAACCACGATAAAGCGGTGGCAATGTCGACTGTTTTGAAGCGGGAAGGCCAACGTTGGAACATTAGCTCACCCTCAATGGTGACAGTCCGCTAAAGTGGCTGGGTAG (double strand)
binding [1]: no binding

Molecule: AGTTCCGGTTCACCCGTTTCCACAACGCGTTTGCCCACCTCAACAACCCTAAAGTAAAGGTTGAGGGTAGCGACACGCCGCTGTAAATGTCCGACACATTGACGTGTTTTTCGCACAAGATATATGTCAGCCGGATTAACACTTTTAGATAAGCTCTCACAGTGCTGACTGCTTATCTGAGATGAAAATAAAAGCAAAATTTTTTTTAGTATCAACTCTTCGAAAGGCGAGACATCGACAATGACCTCACCGAACAACTACCTCGCCAAGA (double strand) [ftsZ promoter 271-bp fragment, Cy3]
binding [2]: binds

Molecule: AGTTCCGGTTCACCCGTTTCCACAACGCGTTTGCCCACCTCAACAACCCTAAAGTAAAGGTTGAGGGTAGCGACACGCCGCTGTAAATGTCCGACACATTGACGTGTTTTTCGCACAAGATATATGTCAGCCGGATTAACACTTTTAGATAAGCTCTCACAGTGCTGACTGCTTATCTGAGATGAAAATAAAAGCAAAATTTTTTTTAGTATCAACTCTTCGAAAGGCGAGACATCGACAATGACCTCACCGAACAACTACCTCGCCAAGA (double strand) [ftsZ promoter 271-bp fragment, unlabeled specific competitor]
binding [1]: binds

stoichiometry N [3]: 2
Molecule: FtsR-Strep (FtsR, Cg1631, of Corynebacterium glutamicum ATCC13032 with C-terminal StrepTag-II) (natural protein)

B1: ftsZ promoter 30-bp oligo (dsDNA)
DNA 1: ACAACCCTAAAGTAAAGGTTGAGGGTAGCG
DNA 2: CGCTACCCTCAACCTTTACTTTAGGGTTGT
binding result (FtsR-Strep): binds

Source: paper PMC6683498, “The conserved actinobacterial transcriptional regulator FtsR controls expression of ftsZ and further target genes and influences growth and cell division in Corynebacterium glutamicum”
